B1: Forkhead box protein P1 (Homo sapiens), Q9H334 (parent)
chain: MMQESGTETKSNGSAIQNGSGGSNHLLECGGLREGRSNGETPAVDIGAADLAHAQQQQQQALQVARQLLLQQQQQQQVSGLKSPKRNDKQPALQVPVSVAMMTPQVITPQQMQQILQQQVLSPQQLQVLLQQQQALMLQQQQLQEFYKKQQEQLQLQLLQQQHAGKQPKEQQQVATQQLAFQQQLLQMQQLQQQHLLSLQRQGLLTIQPGQPALPLQPLAQGMIPTELQQLWKEVTSAHTAEETTGNNHSSLDLTTTCVSSSAPSKTSLIMNPHASTNGQLSVHTPKRESLSHEEHPHSHPLYGHGVCKWPGCEAVCEDFQSFLKHLNSEHALDDRSTAQCRVQMQVVQQLELQLAKDKERLQAMMTHLHVKSTEPKAAPQPLNLVSSVTLSKSASEASPQSLPHTPTTPTAPLTPVTQGPSVITTTSMHTVGPIRRRYSDKYNVPISSADIAQNQEFYKNAEVRPPFTYASLIRQAILESPEKQLTLNEIYNWFTRMFAYFRRNAATWKNAVRHNLSLHKCFVRVENVKGAVWTVDEVEFQKRRPQKISGNPSLIKNMQSSHAYCTPLNAALQASMAENSIPLYTTASMGNPTLGNLASAIREELNGAMEHTNSNESDSSPGRSPMQAVHPVHVKEEPLDPEEAEGPLSLVTTANHSPDFDHDRDYEDEPVNEDME

Variants of: B1
Conditions: with foxp2_human FOXP2, O15409
Chain of foxp2_human FOXP2, O15409 (O15409 whole entry): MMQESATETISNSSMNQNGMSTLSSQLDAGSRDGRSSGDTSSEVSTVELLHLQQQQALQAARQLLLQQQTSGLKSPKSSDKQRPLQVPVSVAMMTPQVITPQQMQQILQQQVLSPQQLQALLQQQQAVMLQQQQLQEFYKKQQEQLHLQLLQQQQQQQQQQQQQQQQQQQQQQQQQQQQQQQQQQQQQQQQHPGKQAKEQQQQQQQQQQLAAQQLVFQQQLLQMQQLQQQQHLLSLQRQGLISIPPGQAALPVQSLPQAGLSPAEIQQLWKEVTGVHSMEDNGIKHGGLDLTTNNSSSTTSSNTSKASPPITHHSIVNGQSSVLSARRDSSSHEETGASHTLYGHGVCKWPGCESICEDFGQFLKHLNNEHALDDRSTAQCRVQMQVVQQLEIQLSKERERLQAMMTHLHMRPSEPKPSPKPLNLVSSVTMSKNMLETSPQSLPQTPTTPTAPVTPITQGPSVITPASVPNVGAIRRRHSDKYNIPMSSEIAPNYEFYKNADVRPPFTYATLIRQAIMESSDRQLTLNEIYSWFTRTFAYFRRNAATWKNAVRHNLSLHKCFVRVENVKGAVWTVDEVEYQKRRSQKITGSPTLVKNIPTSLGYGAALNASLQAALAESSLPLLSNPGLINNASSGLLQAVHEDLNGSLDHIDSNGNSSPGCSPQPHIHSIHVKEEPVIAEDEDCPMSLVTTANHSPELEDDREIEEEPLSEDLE

Row | effect of a mutation on the interaction | Variant
1 | decreasing interaction strength | W534R
2 | decreasing interaction strength | P215A
3 | with no effect | N570S

More lines, now with the values behind:

Row | Variant | effect of a mutation on the interaction
4 | N597T | with no effect
5 | R514C | decreasing interaction strength
6 | I107T | disrupting interaction strength
7 | R465G | with no effect

Variants of: B1
Conditions: with foxp2_human FOXP2, O15409
Remark: another data set of the same source

Row | effect of a mutation on the interaction | Variant
8 | disrupting interaction strength | W534R
9 | decreasing interaction strength | R465G

— IntAct's records for PubMed 26647308
